Test results from patent publication US20260069656A1, “Nutritive Polypeptides and Formulations Thereof, and Methods of Production and Use Thereof” (Axcella Health Inc., priority 2013, published 2026).
Where a chain is given by its changes, count along the chain named.

B1: SEQID-00305: nutritive polypeptide (protein, listed as Bos taurus)
chain: MPHQYPALTPEQKKELCDIAHRIVAPGKGILAADESTGSIAKRLQSIGTENTEENRRFYRQLLLTADDRVNPCIGGVILFHETLYQKADDGRPFPQVIKAKGGVVGIKVDKGVVPLAGTNGETTTQGLDGLSERCAQYKKDGADFAKWRCVLKIGEHTPSSLAIMENANVLARYASICQQNGIVPIVEPEILPDGDHDLKRCQYVTEKVLAAVYKALSDHHIYLEGTLLKPNMVTPGHACTQKYSHEEIAMATVTALRRTVPPAVPGITFLSGGQSEEEASINLNAINKCPLLKPWALTFSYGRALQASALKAWGGKKENLKAAQEEYVKRALANSLACQGKYTPSGKAGAAASESLFISNHAY
B2: SEQID-00220: nutritive polypeptide (protein, listed as Bos taurus)
chain: DTKKKVDDDLGTIENLEEAKKKLLKDVEVLSQRLEEKALAYDKLEKTKTRLQQELDDLLVDLDHQ
B3: SEQID-00269: nutritive polypeptide (protein)
chain: B2 chain with T2L, V6L, I13L, A19L, V27L, V29L, K37L, V60L
B4: SEQID-00287: nutritive polypeptide (protein, listed as Saccharomyces cerevisiae)
chain: LVLGALLDTSHKFRNLDKDLCEKCAKCISMIGVLDVTKHEFKRTTYSENEVYDLNDSVQTIKFLIWVINDILV
modifications: strain ATCC 204508 / S288c
notes: nutritive polypeptide
B5: SEQID-00241: nutritive polypeptide (protein, listed as Bos taurus)
chain: SELKKDIDDLELTLAKVEKEKHATENKVKNLTEEMAGLDETIAKLTKEKKALQEAHQQTLDDLQAEEDKVNTLTKAKTKLEQQVDDLEGSLEQEKKLRMDLERAKRKLEGDLKLA
B6: SEQID-00302: nutritive polypeptide (protein)
chain: MAKKTVANLSASELSGKKVLVRADFNVPLDNGSISDDTRIRAALPTIQDLTSKGAKVILSSHFGRPQGQVVESMRLTPVAARLSELLGKTVKKCDDCIGEEVAVAVGAMSDGDVLLLENVRFHAAEEKNDPEFAKQLASVADLYVNDAFGTAHRAHASTEGVTKYLSPCVAGYLIEKELQFLQGAIESPQRPLAAIIGGSKVSSKIGVIEALLDKCDKLLLGGGMIFTFYKARGLSVGNSLVEEDKLELAKSLEAKAKEKGVTMLLPTDVVLADKFAADADSQTVSVEAIPDGWMGLDIGPDSVKVFQEALGDCKTVLWNGPMGVFEFEKFAAGTRAIAQTLAELTSTGTTTIIGGGDSVAAVEQLNLGEKMSHISTGGGASLELLEGKQLPGIVALDDA
modifications: Arthrospira platensis C1
notes: nutritive polypeptide
B7: SEQID-00510: nutritive polypeptide naturally produced in Turkey, recombinantly expressed in E. coli (protein)
chain: MVPIAEKMAEKQEEPSNTQNGEPDNAEEGEGKKKKKVKREDLPPFEIVTGERLPAIFFKFQFRNVEYSSGRNKTFLCYVVETQGKESTTSRGYLEDEHAASHAEIAFFNTILPKCESSLRYNITWYVSSSPCVTCADRISETLRKNKNLRLTIMVGRLFMWEEPEMQAALKKMKSAGCKLRIMKPQDFEYVWQNFVEQEEGEEAKAFVPWEDIQENFQYYEEKLAEILQ
modifications: Meleagris gallopavo
notes: nutritive polypeptide naturally produced in Turkey, recombinantly expressed in E. coli
B8: SEQID-00100: nutritive polypeptide (protein, listed as Lactobacillus acidophilus)
chain: MSEEEIFNKIKDLIADNFEVDKDSITENTNFMNDLDADSIDLVEFILQLEDEFGAEIPDDEAEKIKTVGDAVSYIKSHQG
B9: SEQID-00098: nutritive polypeptide (protein, listed as Lactococcus lactis)
chain: MAVFEKVQDIIVDELGKEKEEVTLETSFEELDADSLDLFQIINDIEDEFDVEVDTEADMKTVADLVKYVENNK
B10: SEQID-00236: nutritive polypeptide (protein, listed as Bos taurus)
chain: ALQEAHQQTLDDLQAEEDKVNTLTKAKTKLEQQVDDLEGSLEQEKKLRMDLERAKRKLEGDLKLA
B11: SEQID-00115: nutritive polypeptide (protein, listed as Sus scrofa)
chain: EDEDDKTVSDLAVVLFETATLRSGYLLPDTKAYGDRIERMLRLSLNIDPDAKVEEEPEEEPEETTEDTTEDTEQDDDEEMDAGADEEEQETSETSTAEKDE
B12: SEQID-00226: nutritive polypeptide (protein, listed as Bos taurus)
chain: QLQALQAQLTDTKKKVDDDLGTIENLEEAKKKLLKDVEVLSQRLEEKALAYDKLEKTKTRLQQELDDLLVDLDHQRQIVSNLEKKQKKFDQLLAEEKNIS
B13: SEQID-00622: protein of the 168 nutritive polypeptide library (protein, listed as Oryza sativa)
chain: MASEGAVSPAFAYTVVYVKDVAKSAAFYSAAFGYTVRRLDQSHKWAELESGTTTIAFTPLHQRETDALTGAVQLPDSAGERGPVEICFDYADVDAAYRRAVDSGAVPVSPPEQKSWGQKVGYVRDIDGIIVRMGSHVRA
modifications: subsp. japonica
notes: protein of the 168 nutritive polypeptide library

Tests used:
[1] = Intact half-life during simulated gastric fluid (SGF) digestion; conditions: for SGF Half-life (t½): SGF pH 1.5, pepsin:polypeptide 1:20 w/w, 37° C., produced in E. coli unless otherwise noted; for Half-life: purified proteins, chip electrophoresis, SGF
[2] = Thermostability, ProteoStat Thermal Shift Stability Kit, temperature of aggregation; format: physicochemical
Protocol: Thermostability. The thermostability of proteins in a buffer cocktail of Citric Acid and Dibasic Sodium Phosphate over a pH range of 2.8 to 7.1 (preparation described above in Table E31B) was determined using the ProteoStat® Thermal Shift Stability Kit (Enzo Life Sciences) according to the manufacturer's standard protocol. Briefly, protein solutions (˜10 mg/ml) containing 1× ProteoStat TS Detection Reagent were heated from 25° C. to 95° C. at a rate of 0.5° C. per 30 sec using a real-time PCR (rtPCR) thermocycler (BioRad) equipped with a plate reader (SynergyMx, Biotek) while monitoring the fluorescence with a Texas Red filter.

[3] = pH solubility screen in Citric Acid / Dibasic Sodium Phosphate buffers; format: physicochemical; conditions: for pH Range where Protein is >80% detected as Soluble and A650 <1 OD: Low: lower pH of range; for pH Range where Protein is >80% detected as Soluble and A650 <1 OD: High: upper pH of range
Protocol: pH Solubility. […] Protein was either lyophilized and then resuspended in buffer cocktail mixtures, or concentrated and then spiked into buffer cocktail mixtures at a final protein concentration of 5 to 30 mg/ml. As a control, protein was also dissolved in a solution of 8 M urea. Protein solutions were shaken for 10 min at room temperature. Turbidity of proteins was determined by measuring the absorbance of protein solutions at 650 nm. The protein solution was then centrifuged for 10 min at 1100×g to pellet undissolved or precipitated protein. The soluble protein fraction (supernatant) was sampled and protein concentration was measured by one or more of the following methods: Coomassie Plus Protein Assay (Pierce), Chip electrophoresis, gel electrophoresis, and/or absorbance at 280 nm. The pH range over which select proteins remained greater than 80% soluble as determined by Bradford and the A650 value are listed in Table E31C.

[4] = Solubility of proteins (lyophilized/reconstituted or ultrafiltered); conditions: produced in E. coli unless otherwise noted
[5] = heated 25° C. to 95° C., NS = protein not soluble

Row | Molecule | SGF Half-life (t½) [1] [min] | Tagg (pH 7.1) ([2]; heated from 25° C. to 95° C.) | pH Range where Protein is >80% detected as Soluble and A650 <1 OD: Low [3] | pH Range where Protein is >80% detected as Soluble and A650 <1 OD: High [3] | other results
1 | B1 | 0.2 | 48 |  |  | 
2 | B2 | 0.5 | >95 |  |  | 
3 | B3 | 41 | >95 | 7.2 | 9.1 | 
4 | B4 | 3 |  | 6.2 | 9.1 | pH Range where Protein is >80% detected as Soluble and A650 <1 OD: Other [3]: 2.6
5 | B5 | 0.3 | >95 | 4.3 | 9.1 | 
6 | B6 | 0.2 | 46 |  |  | 
7 | B7 | 0.3 |  | 6.5 | 7.1 | Half-life [1]: 0.3 min; pH Range where Protein is >80% detected as Soluble and A650 <1 OD: Other [3]: 2.8
8 | B8 | 2 |  | 4.3 | 7.1 | Tagg pH 2.8 ([2]; NS = protein not soluble): 95; Tagg pH 3.7 ([2]; NS = protein not soluble): 95; Tagg pH 3.9 ([2]; NS = protein not soluble): 95; Tagg pH 4.3 ([2]; NS = protein not soluble): 83; Tagg pH 4.6 ([2]; NS = protein not soluble): 84; Tagg pH 5.0 ([2]; NS = protein not soluble): 95; Tagg pH 5.6 ([2]; NS = protein not soluble): 95; Tagg pH 6.0 ([2]; NS = protein not soluble): 95; Tagg pH 6.5 ([2]; NS = protein not soluble): 95; Tagg (pH 7.1) [2, 5]: >95
9 | B9 | 0.4 |  |  |  | Tagg (pH 7.1) [2, 5]: >95
10 | B10 | 10 |  |  |  | Solubility [4]: 60 g/L
11 | B11 |  |  |  |  | Solubility [4]: 70 g/L
12 | B12 | 0.7 | >95 | 2.6 | 9.1 | 
13 | B13 | 6.6 |  | 2.8 | 7.1 | Half-life [1]: 6.6 min; Tagg pH 2.8 ([2]; NS = protein not soluble): 58.5; Tagg pH 3.7 ([2]; NS = protein not soluble): 42; Tagg pH 3.9 ([2]; NS = protein not soluble): 42; Tagg pH 4.3 ([2]; NS = protein not soluble): 43.5; Tagg pH 4.6 ([2]; NS = protein not soluble): 43.5; Tagg pH 5.0 ([2]; NS = protein not soluble): 42.5; Tagg pH 5.6 ([2]; NS = protein not soluble): 45.5; Tagg pH 6.0 ([2]; NS = protein not soluble): 46; Tagg pH 6.5 ([2]; NS = protein not soluble): 47; Tagg (pH 7.1) [2, 5]: 95
